Each block holds one substance with its values, some of them ahead of it.
What was measured:
[1] = target: human leukocyte antigen-DR (HLA-DR) on human lymphoma and leukemia cell lines and human lymphocytes (human); assay: flow cytometry, Granta-519 (MCL) cells; no mAb 15.3; isotype control
[2] = target: human leukocyte antigen-DR (HLA-DR) on human lymphoma and leukemia cell lines and human lymphocytes (human); assay: flow cytometry, Jeko-1 (MCL) cells; no mAb 14.3; isotype control
[3] = target: human leukocyte antigen-DR (HLA-DR) on human lymphoma and leukemia cell lines and human lymphocytes (human); assay: flow cytometry, MN60 (ALL) cells; no mAb 8.1; isotype control
[4] = target: human leukocyte antigen-DR (HLA-DR) on human lymphoma and leukemia cell lines and human lymphocytes (human); assay: flow cytometry, RS4;11 (ALL) cells; no mAb 6.4; isotype control
[5] = target: human leukocyte antigen-DR (HLA-DR) on human lymphoma and leukemia cell lines and human lymphocytes (human); assay: flow cytometry, K562 (CML) cells; no mAb 3.2; isotype control
[6] = target: human leukocyte antigen-DR (HLA-DR) on human lymphoma and leukemia cell lines and human lymphocytes (human); assay: flow cytometry, WAC (CLL) cells; no mAb 15.8; isotype control
[7] = target: human leukocyte antigen-DR (HLA-DR) on human lymphoma and leukemia cell lines and human lymphocytes (human); assay: flow cytometry, REH (ALL) cells; no mAb 3.9; isotype control
[8] = target: human leukocyte antigen-DR (HLA-DR) on human lymphoma and leukemia cell lines and human lymphocytes (human); assay: flow cytometry, MEC-1 (CLL) cells; no mAb 4.7; isotype control
[9] = target: antigen recognised by L243 on canine lymphocytes and canine lymphoma cells (HLA-DR of the dog) (dog); assay: flow cytometry, canine lymphoma aspirate 150836; none 3.4; control antibody
[10] = target: human leukocyte antigen-DR (HLA-DR) on human lymphoma and leukemia cell lines and human lymphocytes (human); assay: flow cytometry, GDM-1 (AML) cells; no mAb 16.8; isotype control
[11] = target: antigen recognised by L243 on canine lymphocytes and canine lymphoma cells (HLA-DR of the dog) (dog); assay: flow cytometry, canine lymphoma aspirate 150836; none 3.9; control antibody
[12] = target: human leukocyte antigen-DR (HLA-DR) on human lymphoma and leukemia cell lines and human lymphocytes (human); assay: flow cytometry, Kasumi-1 (AML) cells; no mAb 18.2; isotype control
[13] = target: human leukocyte antigen-DR (HLA-DR) on human lymphoma and leukemia cell lines and human lymphocytes (human); assay: flow cytometry, HC-1 (hairy cell leukemia) cells; no mAb 4.8; isotype control
[14] = target: antigen recognised by L243 on canine lymphocytes and canine lymphoma cells (HLA-DR of the dog) (dog); assay: flow cytometry, dog lymphoma aspirate; none 3.85; control antibody
[15] = target: human leukocyte antigen-DR (HLA-DR) on human lymphoma and leukemia cell lines and human lymphocytes (human); assay: flow cytometry, 697 (ALL) cells; no mAb 4.9; isotype control
[16] = target: antigen recognised by L243 on canine lymphocytes and canine lymphoma cells (HLA-DR of the dog) (dog); assay: flow cytometry, dog lymphoma aspirate; none 3.37; control antibody
[17] = target: human leukocyte antigen-DR (HLA-DR) on human lymphoma and leukemia cell lines and human lymphocytes (human); assay: flow cytometry, Kasumi-3 (AML) cells; no mAb 9.6; isotype control
[18] = target: human leukocyte antigen-DR (HLA-DR) on human lymphoma and leukemia cell lines and human lymphocytes (human); assay: indirect flow cytometry, Namalwa cells, FITC-GAM; none 2.91; control antibody
[19] = target: canine CD22 on dog lymphocytes and lymphoma cells (dog); assay: flow cytometry, canine lymphoma aspirate 150836; none 4.5
[20] = target: canine CD22 on dog lymphocytes and lymphoma cells (dog); assay: flow cytometry, dog lymphoma aspirate; none 3.24
[21] = target: canine CD22 on dog lymphocytes and lymphoma cells (dog); assay: flow cytometry, canine lymphoma aspirate 150836; none 3.2
[22] = target: canine CD22 on dog lymphocytes and lymphoma cells (dog); assay: flow cytometry, dog lymphoma aspirate; none 4.48
[23] = target: canine CD20 on dog lymphocytes and lymphoma cells (dog) (UniProt Q3C2E2); assay: flow cytometry, dog lymphoma aspirate; none 3.85
Chain of canine CD20 on dog lymphocytes and lymphoma cells (dog) (Q3C2E2 whole entry): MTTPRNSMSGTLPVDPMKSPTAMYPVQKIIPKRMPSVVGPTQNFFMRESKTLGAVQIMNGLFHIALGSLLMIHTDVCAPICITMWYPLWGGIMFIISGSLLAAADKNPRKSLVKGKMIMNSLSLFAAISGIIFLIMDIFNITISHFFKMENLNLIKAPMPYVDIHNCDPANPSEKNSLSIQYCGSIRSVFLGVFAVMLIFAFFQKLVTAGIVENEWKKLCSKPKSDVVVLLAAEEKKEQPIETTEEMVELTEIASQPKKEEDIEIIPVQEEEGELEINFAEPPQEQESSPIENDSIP

[24] = target: human CD20 on cells (human) (UniProt P11836); assay: flow cytometry, GDM-1 (AML) cells; no mAb 16.8
Chain of human CD20 on cells (human) (P11836 whole entry): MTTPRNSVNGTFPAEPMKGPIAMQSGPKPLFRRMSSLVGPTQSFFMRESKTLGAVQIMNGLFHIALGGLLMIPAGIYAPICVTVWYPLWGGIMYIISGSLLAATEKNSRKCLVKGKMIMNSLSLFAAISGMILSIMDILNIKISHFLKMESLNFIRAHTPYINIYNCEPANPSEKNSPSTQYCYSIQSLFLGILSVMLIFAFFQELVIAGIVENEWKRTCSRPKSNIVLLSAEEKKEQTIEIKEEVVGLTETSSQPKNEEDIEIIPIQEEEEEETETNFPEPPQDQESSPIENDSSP

[25] = target: human CD20 on cells (human) (UniProt P11836); assay: flow cytometry, Kasumi-1 (AML) cells; no mAb 18.2
[26] = target: human CD20 on cells (human) (UniProt P11836); assay: flow cytometry, MEC-1 (CLL) cells; no mAb 4.7
[27] = target: human CD20 on cells (human) (UniProt P11836); assay: flow cytometry, REH (ALL) cells; no mAb 3.9
[28] = target: canine CD20 on dog lymphocytes and lymphoma cells (dog) (UniProt Q3C2E2); assay: flow cytometry, canine lymphoma aspirate 150836; none 3.9
[29] = target: human CD20 on cells (human) (UniProt P11836); assay: indirect flow cytometry, Namalwa cells, FITC-GAM; none 2.91
[30] = target: human CD20 on cells (human) (UniProt P11836); assay: flow cytometry, Kasumi-3 (AML) cells; no mAb 9.6
[31] = target: human CD20 on cells (human) (UniProt P11836); assay: flow cytometry, Granta-519 (MCL) cells; no mAb 15.3
[32] = target: canine CD20 on dog lymphocytes and lymphoma cells (dog) (UniProt Q3C2E2); assay: flow cytometry, dog lymphoma aspirate; none 3.37
[33] = target: human CD20 on cells (human) (UniProt P11836); assay: flow cytometry, HC-1 (hairy cell leukemia) cells; no mAb 4.8
[34] = target: canine CD20 on dog lymphocytes and lymphoma cells (dog) (UniProt Q3C2E2); assay: flow cytometry, canine lymphoma aspirate 150836; none 3.4
[35] = target: human CD20 on cells (human) (UniProt P11836); assay: flow cytometry, MN60 (ALL) cells; no mAb 8.1
[36] = target: human CD20 on cells (human) (UniProt P11836); assay: flow cytometry, RS4;11 (ALL) cells; no mAb 6.4
[37] = target: human CD20 on cells (human) (UniProt P11836); assay: flow cytometry, WAC (CLL) cells; no mAb 15.8
[38] = target: human CD20 on cells (human) (UniProt P11836); assay: flow cytometry, Jeko-1 (MCL) cells; no mAb 14.3
[39] = target: human CD20 on cells (human) (UniProt P11836); assay: flow cytometry, 697 (ALL) cells; no mAb 4.9
[40] = target: human CD20 on cells (human) (UniProt P11836); assay: flow cytometry, K562 (CML) cells; no mAb 3.2
[41] = target: canine CD22 on dog lymphocytes and lymphoma cells (dog); assay: flow cytometry, dog lymphoma aspirate; none 3.85
[42] = target: canine CD22 on dog lymphocytes and lymphoma cells (dog); assay: flow cytometry, canine lymphoma aspirate 150836; none 3.9
[43] = target: canine CD22 on dog lymphocytes and lymphoma cells (dog); assay: flow cytometry, dog lymphoma aspirate; none 3.37
[44] = target: canine CD22 on dog lymphocytes and lymphoma cells (dog); assay: flow cytometry, canine lymphoma aspirate 150836; none 3.4
[45] = target: human leukocyte antigen-DR (HLA-DR) on human lymphoma and leukemia cell lines and human lymphocytes (human); assay: indirect flow cytometry, Namalwa cells, FITC-GAH; none 2.52; irrelevant antibody
[46] = target: human leukocyte antigen-DR (HLA-DR) on human lymphoma and leukemia cell lines and human lymphocytes (human); assay: indirect flow cytometry, Namalwa cells, FITC-GAM; none 2.91; irrelevant antibody

mean FL [1]: 16.9 | mean FL [2]: 17.4 | mean FL [3]: 10.5 | mean FL [4]: 8.6 | mean FL [5]: 4.1 | mean FL [6]: 14.4 | mean FL [7]: 3.9 | mean FL [8]: 6 | mean FL [9]: 3 | mean FL [10]: 20.1 | % Positive [11]: 2.8% | mean FL [12]: 17 | mean FL [13]: 3.5 | % Positive [14]: 2.81% | mean FL [15]: 5.6 | mean FL [16]: 3.04 | mean FL [17]: 15.7 | GEO MEAN Fluorescence [18]: 3.64
Substance: Ag8 (P3x63 Ag8, murine myeloma derived mAb) (antibody)

% Positive [19]: 4.9% | mean FL [20]: 3.37 | mean FL [21]: 3.4 | % Positive [22]: 4.85%
Substance: epratuzumab (hLL2, humanized anti-CD22 mAb) (antibody)

% Positive [23]: 2.61% | mean FL [24]: 15.6 | mean FL [25]: 14.5 | mean FL [26]: 175 | mean FL [27]: 23.5 | % Positive [28]: 2.6% | GEO MEAN Fluorescence [29]: 6.16 | mean FL [30]: 11 | mean FL [31]: 677 | mean FL [32]: 3.11 | mean FL [33]: 42.2 | mean FL [34]: 3.1 | mean FL [35]: 162 | mean FL [36]: 11.5 | mean FL [37]: 275 | mean FL [38]: 455 | mean FL [39]: 6.9 | mean FL [40]: 4.3
Substance: 2B8 (murine anti-CD20 mAb) (antibody)

% Positive [41]: 5.05% | % Positive [42]: 5.1% | mean FL [43]: 3.73 | mean FL [44]: 3.7
Substance: murine LL2 (anti-human CD22) (antibody)

GEO MEAN Fluorescence [45]: 2.47
Substance: hRS7 (humanized anti-EGP-1) (antibody)

GEO MEAN Fluorescence [46]: 3.39
Substance: murine RS7 (antibody)

From patent publication US20100196266A1
